Assay results: patent publication US20040132025A1, “Ampk-related serine/threonine kinase, designated snark” (priority 2001, published 2004)
Marks after values point to notes of the source that are not given here.

Key:
AMPK-α2 = biological target: T1, AMPK-α2 (Rattus norvegicus, UniProt P80385+Q09137); assay: AMPK-α2 activity in NRKC cells treated with AICAR; format: cell-based; conditions: ImM AICAR, same assay conditions, data not shown
T1 construct: increased at least 2-fold upon treatment with ImM AICAR in NRKC cells; endogenous in cells; host or cells: NRKC (neonatal rat keratinocytes)
T1 sequence (Q09137 whole entry): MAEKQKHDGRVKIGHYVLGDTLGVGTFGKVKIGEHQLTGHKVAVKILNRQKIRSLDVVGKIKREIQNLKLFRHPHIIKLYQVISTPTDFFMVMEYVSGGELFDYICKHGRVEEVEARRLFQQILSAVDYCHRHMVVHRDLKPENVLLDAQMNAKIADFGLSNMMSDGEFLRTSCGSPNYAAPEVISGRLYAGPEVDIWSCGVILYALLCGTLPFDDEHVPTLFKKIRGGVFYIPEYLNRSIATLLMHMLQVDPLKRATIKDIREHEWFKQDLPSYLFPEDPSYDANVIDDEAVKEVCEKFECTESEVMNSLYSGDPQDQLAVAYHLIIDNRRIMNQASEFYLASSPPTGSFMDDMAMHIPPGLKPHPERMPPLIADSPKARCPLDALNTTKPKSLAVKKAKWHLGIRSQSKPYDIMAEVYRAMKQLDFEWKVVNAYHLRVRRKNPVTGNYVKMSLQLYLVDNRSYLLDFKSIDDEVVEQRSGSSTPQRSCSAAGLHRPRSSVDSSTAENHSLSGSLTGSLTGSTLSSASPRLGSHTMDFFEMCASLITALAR
T1 sequence (P80386 whole entry partner): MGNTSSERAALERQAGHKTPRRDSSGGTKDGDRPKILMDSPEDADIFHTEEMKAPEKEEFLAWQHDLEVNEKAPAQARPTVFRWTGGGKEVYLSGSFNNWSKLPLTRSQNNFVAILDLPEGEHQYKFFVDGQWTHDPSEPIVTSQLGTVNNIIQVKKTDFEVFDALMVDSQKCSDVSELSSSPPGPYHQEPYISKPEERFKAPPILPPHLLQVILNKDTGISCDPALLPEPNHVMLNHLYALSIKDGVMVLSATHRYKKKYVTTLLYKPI
T1 sequence (P80385 whole entry): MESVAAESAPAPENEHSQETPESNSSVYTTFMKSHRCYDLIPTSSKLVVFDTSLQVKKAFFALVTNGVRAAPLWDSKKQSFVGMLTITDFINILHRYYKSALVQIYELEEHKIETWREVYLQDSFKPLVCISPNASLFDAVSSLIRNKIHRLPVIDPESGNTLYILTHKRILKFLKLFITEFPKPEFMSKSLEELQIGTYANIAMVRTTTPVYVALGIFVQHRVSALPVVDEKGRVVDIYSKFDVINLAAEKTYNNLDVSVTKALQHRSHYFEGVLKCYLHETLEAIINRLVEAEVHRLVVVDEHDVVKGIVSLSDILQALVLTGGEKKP

AMPKα1 = biological target: T2, AMPKα1 (Rattus norvegicus, UniProt P54645+P80385); assay: AMPKα1 activity in NRKC cells treated with AICAR; format: cell-based; conditions: treatment with AICAR, data not shown
T2 construct: endogenous in cells; host or cells: NRKC (neonatal rat keratinocytes)
T2 sequence (P54645 whole entry): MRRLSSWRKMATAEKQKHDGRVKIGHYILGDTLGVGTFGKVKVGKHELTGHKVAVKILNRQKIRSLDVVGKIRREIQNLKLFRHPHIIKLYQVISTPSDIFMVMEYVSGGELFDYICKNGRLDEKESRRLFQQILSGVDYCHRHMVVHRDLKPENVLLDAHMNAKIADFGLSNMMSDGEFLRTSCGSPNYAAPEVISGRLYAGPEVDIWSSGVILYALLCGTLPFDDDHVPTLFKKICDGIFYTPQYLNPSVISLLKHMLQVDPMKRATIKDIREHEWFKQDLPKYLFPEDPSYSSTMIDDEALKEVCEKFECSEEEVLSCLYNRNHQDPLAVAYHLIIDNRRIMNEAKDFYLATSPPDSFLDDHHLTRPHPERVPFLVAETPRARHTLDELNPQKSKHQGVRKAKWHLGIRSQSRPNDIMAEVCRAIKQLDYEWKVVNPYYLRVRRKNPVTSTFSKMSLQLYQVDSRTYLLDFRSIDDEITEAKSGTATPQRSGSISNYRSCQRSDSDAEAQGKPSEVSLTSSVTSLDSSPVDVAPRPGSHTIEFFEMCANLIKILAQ
T2 sequence (P80386 whole entry partner): as the sequence (P80386 whole entry partner) above
T2 sequence (P80385 whole entry): as the sequence (P80385 whole entry) above

SNARK [1] = biological target: T3, SNARK (Rattus norvegicus, UniProt Q66HE5); assay: Activation of SNARK in NRKC cells using AICAR; format: cell-based; set-up: In the assays performed with SNARK immunoprecipitated from NRKC cell lysates; endogenous in cells; host or cells: NRKC (neonatal rat keratinocytes); conditions: 1 mM AICAR for one hour, kinase assay with 200 μM AMP and SAMS peptide, p<0.05
T3 sequence (Q66HE5 1-630): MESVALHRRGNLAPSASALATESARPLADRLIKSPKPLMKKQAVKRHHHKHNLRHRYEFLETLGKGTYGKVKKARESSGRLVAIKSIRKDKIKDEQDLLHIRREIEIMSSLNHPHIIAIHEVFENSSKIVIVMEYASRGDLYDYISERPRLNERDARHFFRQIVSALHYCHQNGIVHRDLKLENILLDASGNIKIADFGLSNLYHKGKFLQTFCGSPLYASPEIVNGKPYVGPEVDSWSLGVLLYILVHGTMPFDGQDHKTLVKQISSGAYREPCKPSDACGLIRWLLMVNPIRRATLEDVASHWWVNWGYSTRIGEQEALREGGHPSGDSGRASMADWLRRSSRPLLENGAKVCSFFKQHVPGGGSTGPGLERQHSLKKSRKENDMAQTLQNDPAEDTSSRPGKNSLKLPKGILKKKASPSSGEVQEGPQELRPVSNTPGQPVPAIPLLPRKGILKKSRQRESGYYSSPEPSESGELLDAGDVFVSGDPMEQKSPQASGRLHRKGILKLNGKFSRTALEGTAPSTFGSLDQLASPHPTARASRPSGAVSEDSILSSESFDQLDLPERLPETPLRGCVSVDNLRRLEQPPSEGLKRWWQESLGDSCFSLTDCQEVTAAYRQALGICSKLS
Procedure: FIG. 8.(A) Activation of SNARK in NRKC cells using AICAR. NRKC cells were treated with 0, 0.5 mM, 1 mM or 2 mM AICAR for 1 hour. SNARK protein was immunoprecipitated from 500 μg of cell lysates with SNARK antiserum and kinase assays were performed in the presence of 200 μM AMP using the SAMS peptide. Solid box represents control (0 mM AICAR) samples and hatched boxes represent AICAR-treated samples. Data is expressed as phosphotransferase activity relative to control values (control=1) and represents the means±S.E.M. for 2 individual experiments with at least 10 samples per group per experiment. *p<0.06, relative to control values. […] Results are expressed as phosphotransferase activity relative to control values (control=1) and represents the mean±S.E.M. from 2 individual experiments with at least 10 samples per group per experiment. *p<0.03, relative to control values. […]
The adenosine analogue, 5-aminoimidizole-4-carboxamide riboside (AICAR), provides a means of stimulating AMPK activity in whole cells, even in the presence of high glucose concentrations, and mimics the effects of AMP on the AMPK cascade. Intriguingly, SNARK activity was induced 2.8-fold (p<0.05) in NRKC cells when treated with 1 mM AICAR for one hour (FIG. 8A, hatched box), as compared to SNARK activity measured in untreated NRKC cells (solid box).

SNARK [2] = biological target: T3, SNARK; assay: Kinase assay of immunoprecipitated SNARK with candidate substrates (substrate specificity); format: biochemical; set-up: In the assays performed with SNARK immunoprecipitated from NRKC cell lysates; endogenous in cells; host or cells: NRKC (neonatal rat keratinocytes); conditions: for Activity (phosphotransferase activity of SNARK towards substrate): SNARK immunoprecipitated from 500 ug NRKC cell lysate, SAMS peptide 250 uM or 30 ug of other substrate, 1 μM PKC inhibitor and 500 nM PKA inhibitor peptides, 30 C, means±S.E.M.; for Ability of SNARK to phosphorylate the substrate: SNARK immunoprecipitated from NRKC cell lysates, PKA and PKC peptide inhibitors included
Procedure: (§1) Kinase Assay—Following immunoprecipitation with antiserum, SNARK activity was analysed by performing kinase assays with immunoprecipitated SNARK and a variety of substrates (MBP, B-casein, whole histone fraction, protamine sulphate and a synthetic peptide substrate (HMRSAMSGLHLVKRR, ‘SAMS’ peptide). Kinase assays with the SAMS peptide were performed essentially as described, except that the three washes were done with IP buffer containing 500 mM NaCl followed by a final wash in kinase assay buffer. For kinase assays performed to determine substrate specificity (with substrates other than SAMS peptide), reactions included 30 ug of substrate, 500 nM PKA inhibitor peptide and 1 uM PKC inhibitor peptide. Activities were calculated as fmol of phosphate incorporated into the SAMS peptide/min per milligram of lysate subjected to immunoprecipitation, minus the activity obtained with a blank reaction (cell lysate and Protein A-Sepharose only).
Peptide inhibitors of PKA and PKC were included in these reactions to eliminate phosphorylation of these substrates by these enzymes.
Immunoprecipitation of 500 ug of NRKC cell lysate with SNARK antiserum was performed as described above. Phosphotransferase activity was assayed with either SAMS peptide (250 uM) or 30 ug of dephosphorylated MBP, dephosphorylated β-casein, whole histone fraction or protamine sulfate in the presence of 1 μM PKC inhibitor and 500 nM PKA inhibitor peptides. Phosphortransferase activity is expressed in fmol of phosphate transferred to the SAMS peptide/min at 30 C per mg of protein subjected to immunoprecipitation. Results are means±S.E.M. for two individual assays with at least eight samples per group. *p<0.01 compared with all other substrates.

SNARK [3] = biological target: T3, SNARK; assay: SNARK phosphotransferase activity (SAMS peptide) assayed in the presence of AMP, wildtype and SNARK-transfected BHK cell lysates; format: biochemical, hamster; set-up: The complete open reading frame of rat SNARK was subcloned into the pcDNA3.1 vector; expressed in transfected cells; conditions: 200 μM AMP in assay; SNARK-transfected BHK cell lysates
Procedure: (§2) FIG. 7. […] SNARK protein was immunoprecipitated from 500 μg of cell lysate from wildtype BHK, BHK−1, BHK+1 and BHK+11 cells. Kinase assays were performed using the 200 μM SAMS peptide as substrate in kinase reaction cocktail. NRKC cells (stippled box); wildtype BHK cells (solid box); BHK+1 and +11 cells (hatched boxes). Results are the means±S.E.M. for 2 experiments (n=5 each time). For comparative purposes, AMPKα2 activity was assayed in these cell lines and found to be equivalent to, 4-fold lower and 1.5-fold lower than the SNARK activity levels measured under basal growth conditions in wildtype BHK, SNARK-transfected BHK and NRKC cell lines, respectively (data not shown).
as §1, with “Activities were calculated as fmol of phosphate incorporated into the SAMS peptide/min per milligram of lysate subjected to immunoprecipitation, minus the activity obtained with a blank reaction (cell lysate and Protein A-Sepharose only).” left out

SNARK [4] = biological target: T3, SNARK; assay: SNARK phosphotransferase activity (SAMS peptide) assayed in the presence of AMP, NRKC cell lysates; format: biochemical; set-up: In the assays performed with SNARK immunoprecipitated from NRKC cell lysates; endogenous in cells; host or cells: NRKC (neonatal rat keratinocytes); conditions: 200 μM AMP in assay; NRKC cells; p<0.001
Procedure: as §2
as §1, with “Activities were calculated as fmol of phosphate incorporated into the SAMS peptide/min per milligram of lysate subjected to immunoprecipitation, minus the activity obtained with a blank reaction (cell lysate and Protein A-Sepharose only).” left out

SNARK [5] = assay: SNARK phosphotransferase activity (SAMS peptide) assayed in the presence of AMP, wildtype and SNARK-transfected BHK cell lysates; format: biochemical, hamster; conditions: 200 μM AMP in assay; wildtype BHK cell lysates
Procedure: as §2
as §1, with “Activities were calculated as fmol of phosphate incorporated into the SAMS peptide/min per milligram of lysate subjected to immunoprecipitation, minus the activity obtained with a blank reaction (cell lysate and Protein A-Sepharose only).” left out

[6] = biological target: dephosphorylated B-casein; assay: cell-based or functional assay
whole histone fraction = assay: cell-based or functional assay
protamine sulfate = assay: cell-based or functional assay
[7] = biological target: dephosphorylated myelin basic protein; assay: cell-based or functional assay
SAMS peptide = assay: cell-based or functional assay

NC(=O)c1ncn([C@@H]2O[C@H](CO)[C@@H](O)[C@H]2O)c1N [AICAR, 5-aminoimidizole-4-carboxamide riboside]
Increase in AMPK-α2 activity over basal (AMPK-α2): at least 2 fold | Stimulation of AMPKα1 activity (AMPKα1): not stimulated | Induction of SNARK activity relative to untreated cells (SNARK [1]): 2.8 fold

Protamine sulfate
Activity (phosphotransferase activity of SNARK towards substrate) (SNARK [2]): 7 ± 2 fmol/min per mg | Ability of SNARK to phosphorylate the substrate (SNARK [2]): minimal

Nc1ncnc2c1ncn2[C@@H]1O[C@H](COP(=O)(O)O)[C@@H](O)[C@H]1O [AMP]
Change in SNARK phosphotransferase activity (SNARK [3]): no significant change | Increase in SNARK phosphotransferase activity (SNARK [4]): 1.7 fold | Change in SNARK phosphotransferase activity (SNARK [5]): no significant change

HMRSAMSGLHLVKRR [SAMS peptide, synthetic peptide AMPK substrate corresponding to the site in rat acetyl-CoA carboxylase phosphorylated by AMPK]
Activity (phosphotransferase activity of SNARK towards substrate) (SNARK [2]): 145 ± 46* fmol/min per mg | Ability of SNARK to phosphorylate the substrate (SNARK [2]): able to phosphorylate

rat SNARK protein (enzyme)
Activity (fmol/min per mg); phosphotransferase activity of SNARK immunoprecipitated from NRKC cell lysate (fmol/min per mg) [6]: 37 | Activity (fmol/min per mg); phosphotransferase activity of SNARK immunoprecipitated from NRKC cell lysate (fmol/min per mg) (whole histone fraction): 19 | Activity (fmol/min per mg); phosphotransferase activity of SNARK immunoprecipitated from NRKC cell lysate (fmol/min per mg) (protamine sulfate): 7 | Activity (fmol/min per mg); phosphotransferase activity of SNARK immunoprecipitated from NRKC cell lysate (fmol/min per mg) [7]: 91 | Activity (fmol/min per mg); phosphotransferase activity of SNARK immunoprecipitated from NRKC cell lysate (fmol/min per mg) (SAMS peptide): 145
